From article PMC6314544

Experiments:
hLC3-KCK-his6 (human) [1] = target: hLC3-KCK-his6 (human) (UniProt Q9GZQ8); experiment: FRET or BRET; various concentrations of Alexa Fluor 546-labeled NT JMY added to 200 nM Alexa Fluor 647-labeled LC3; 100 mM KCl, 20 mM Hepes pH 7.4
hLC3-KCK-his6 (human) [2] = target: hLC3-KCK-his6 (human) (UniProt Q9GZQ8); experiment: AUC; sedimentation equilibrium of purified LC3 in solution; dimer to monomers

Row | Substance | Kd (hLC3-KCK-his6 (human) [1]) [nM] | Kd (hLC3-KCK-his6 (human) [2]) [nM]
1 | SNAP-JMY (1-314), N-terminal region of JMY (from UniProt Q8N9B5 1-314) (domain or fragment) | 55 | 
2 | hLC3-KCK-his6 (from UniProt Q9GZQ8 1-120) (natural protein) |  | > 700000
